Results published in patent US20200262869A1, “PEPTIDE ANTIBIOTIC COMPLEXES AND METHODS OF USE THEREOF” (GENENTECH, INC., priority 2017, published 2020).
≈ marks a conversion by molar mass, not a printed value.

How the values were obtained:
[1] = target: LepB P88L (E. coli ATCC 25922) (E. coli) (UniProt P00803); assay: cell-based or functional assay
[2] = target: LepB V133F (E. coli ATCC 25922) (E. coli) (UniProt P00803); assay: cell-based or functional assay
[3] = target: LepB P88T (E. coli ATCC 25922) (E. coli) (UniProt P00803); assay: cell-based or functional assay
[4] = target: LepB P88Q (E. coli ATCC 25922) (E. coli) (UniProt P00803); assay: cell-based or functional assay
[5] = target: LepB E83K (E. coli ATCC 25922) (E. coli) (UniProt P00803); assay: cell-based or functional assay
[6] = target: LepB D143Y (E. coli ATCC 25922) (E. coli) (UniProt P00803); assay: cell-based or functional assay
[7] = target: LepB in E. coli K-12 MG1655 (E. coli) (UniProt P00803); assay: cell-based or functional assay
[8] = target: LepB F85S (E. coli ATCC 25922) (E. coli) (UniProt P00803); assay: cell-based or functional assay
[9] = target: LepB A297V (E. coli ATCC 25922) (E. coli) (UniProt P00803); assay: cell-based or functional assay
[10] = target: LepB L142R (E. coli ATCC 25922) (E. coli) (UniProt P00803); assay: cell-based or functional assay
[11] = target: LepB P88R (E. coli ATCC 25922) (E. coli) (UniProt P00803); assay: cell-based or functional assay
[12] = target: LepB V149(VVGLP) (E. coli ATCC 25922) (E. coli) (UniProt P00803); assay: cell-based or functional assay
[13] = target: full length recombinant LepB from E. coli (E. coli) (UniProt P00803); assay: kinetic enzyme assay, full-length LepB in detergent micelle, fluorogenic substrate Dabcyl-DAP-PAKAAE-Edans (SEQ ID NO: 6), 2-step irreversible binding model (Dynafit)
E. aerogenes ATCC 13408 = assay: MIC, broth microdilution; assay type: cell-based
Description: (§1) Minimum Inhibitory Concentration (MIC). MICs were determined by performing two-fold serial dilutions of compound in Mueller Hinton II cation-adjusted broth to a final volume of 0.1 m1 in round-bottom 96-well assay plates (Corning Life Sciences No 3788). Each well was inoculated with 5×10^5 CFU/ml and incubated at 37° C. without agitation for 18 hours. Plates were scored by eye, and the lowest compound concentration preventing visible growth was determined to be the MIC.

K. pneumoniae ATCC 43816 = assay: MIC, broth microdilution; assay type: cell-based; conditions: K. pneumoniae ATCC 43816
Description: as §1

P. aeruginosa ATCC 27853 = assay: MIC, broth microdilution; assay type: cell-based
Description: as §1

C. werkmanii ATCC 51114 = assay: MIC, broth microdilution; assay type: cell-based
Description: as §1

E. cloacae ATCC 13407 = assay: MIC, broth microdilution; assay type: cell-based
Description: as §1

A. baumannii ATCC 17978 = assay: MIC, broth microdilution; assay type: cell-based
Description: as §1

E. coli ATCC 25922 = assay: MIC, broth microdilution; assay type: cell-based; conditions: E. coli ATCC 25922
Description: as §1

S. marcescens CDC4385-74 = assay: MIC, broth microdilution; assay type: cell-based
Description: as §1

[14] = system: MDR K. pneumoniae CDC 0106; assay: MIC against MDR clinical isolate; assay type: cell-based
Description: as §1

## G0775 (peptide)
[1]
  Fold MIC Increase: 16 fold
[2]
  Fold MIC Increase: 16 fold
[3]
  Fold MIC Increase: 4 fold
[4]
  Fold MIC Increase: 4 fold
[5]
  Fold MIC Increase: 16 fold
[6]
  Fold MIC Increase: 8 fold
[7]
  G0775 MIC (µg/ml), MG 1655 - LepB High (Increase LepB expression level): 1 µg/mL
  G0775 MIC (µg/ml), MG 1655 - LepB Low (Reduced LepB expression level): 0.008 µg/mL
  G0775 MIC (µg/ml), MG1655 WT: 0.125 µg/mL
[8]
  Fold MIC Increase: 8 fold
[9]
  Fold MIC Increase: 4 fold
[10]
  Fold MIC Increase: 8 fold
[11]
  Fold MIC Increase: 16 fold
[12]
  Fold MIC Increase: 128 fold
[13]
  kinact: 0.0007 s⁻¹

## CCCCCCCCCCCCCCCC(=O)N(C)[C@H](CO)C(=O)N[C@H](C)C(=O)NCC(=O)N(C)[C@@H]1C(=O)N[C@@H](C)C(=O)N[C@H](C(=O)O)Cc2ccc(O)c(c2)-c2cc1ccc2O [Arylomycin A-C16, reference compound]
E. aerogenes ATCC 13408
  MIC: >64 µg/mL
K. pneumoniae ATCC 43816
  MIC: >64 µg/mL
P. aeruginosa ATCC 27853
  MIC: >64 µg/mL
C. werkmanii ATCC 51114
  MIC: >64 µg/mL
E. cloacae ATCC 13407
  MIC: >64 µg/mL
A. baumannii ATCC 17978
  MIC: >64 µg/mL
E. coli ATCC 25922
  MIC: >64 µg/mL
S. marcescens CDC4385-74
  MIC: >64 µg/mL

## C[C@H]1COc2c(N3CCN(C)CC3)c(F)cc3c(=O)c(C(=O)O)cn1c23 [Levofloxacin]
[14]; Klebsiella pneumoniae
  MIC: > 64 µg/mL

## C[C@@H](O)[C@H]1C(=O)N2C(C(=O)O)=C(S[C@@H]3CN[C@H](C(=O)N(C)C)C3)[C@H](C)[C@H]12 [Meropenem]
[14]; Klebsiella pneumoniae
  MIC: > 64 µg/mL

## Colistin
[14]; MDR K. pneumoniae CDC 0106
  MIC: 16 µg/mL

## Gentamicin
[14]; MDR K. pneumoniae CDC 0106
  MIC: >64 µg/mL

## CN(C)c1cc(NC(=O)CNC(C)(C)C)c(O)c2c1C[C@H]1C[C@H]3[C@H](N(C)C)C(O)=C(C(N)=O)C(=O)[C@@]3(O)C(O)=C1C2=O [Tigecycline]
[14]; Klebsiella pneumoniae
  MIC: 2 µg/mL (≈ 3.41 µM)
